{
  "source": "the DeepSol protein solubility set",
  "data": [
    {"test": "soluble on expression in E. coli; label from the status in PepcDB or PDB records", "values": [
      {"sequence": "KFSPEFGIFMNIGASKIFTKTEVDQNEYSYLVDFRTIKGDIFLDFEAIFQLGVKNNINNNIVTGLTSLLEIGYSPYIISTKYEGESDSIYYIFTDRVILYSLVLGALEKIVFNNFSIGIGAGVLFPISGFAASNHPRNIISVMPSENLSIISPYNSKLDYAYIKKLFKVPVAPYIKITAEYAFKPYKIDNAEMDFVLGAYLSYNFGMQYDVSVLNSNIPKQGDNGLIIPGISSKDMFYKYDYSNLDFGVTFGVSFRALE", "soluble on expression in E. coli": "not soluble"},
      {"sequence": "MGSDKIHHHHHHMMNTLAHPPGTDDATLSGMLSHFRLLEPVFDAMPDVVFFVKDAEARYALVNRTLASRCGFKEKTALLGRTAEDVFPRRFGRIYTAQDKAIINVGNQLIDQLELHLYPGRQPGWCLTCKQPLRNAAGKVVGLAGISRDLKADESSHPAYSRLATVVQSIQENYVQPLNLKQLAAMADMSVAQLERYFHKVFHLTPRQVLLKARLDAATALLVSHDKVTDVAALCGYTDHSAFTRQFKATVGVTPTEYRMLLHGTSRS", "soluble on expression in E. coli": "not soluble"},
      {"sequence": "MVTVPDAIKGSSPTPQQDLVRVMSAPQLYVGQEARFGGKVVAVQNQQGKTRLEIATVPLDSGARPTLGEPSRGRIYADVNGFLDPVDFRGQLVTVVGPITGAVDGKIGNTPYKFMVMQVTGYKRWHLTQQVIMPPQPIDPWFYGGRGWPYGYGGWGWYNPGPARVQTVVTELEHHHHHH", "soluble on expression in E. coli": "soluble"},
      {"sequence": "MANDKIVIHGARAHNLKNIDVTIPRDKMVVVTGLSGSGKSSLAFDTLYAEGQRRYVESLSAYARQFLGQMDKPDVDSIDGLSPAISIDQKTTSKNPRSTVGTVTEINDYLRLLFARVGHPICPNDHIEITSQSVEQMVDKVLELPERTKIQILAPVVVKKKGQHKKVFEMIQREGYVRMRVDGETYDVSEAPELEKNKKHDIAIVIDRIVVKEGIRSRLFDSFEAALRLAEGYAIVDVIGQEEMLFSEHYACPYCGFTVGELEPRLFSFNAPFGACPDCDGLGVKLEVDKDLVIPDPTKTLREGAIVPWNPISSQYYPQMLEQAATSFGIDMDTPFEELPADQQEIILNGSGEKNFHFHYENDFGGVRDVEVPFEGILKNIKRRYHETNSDFTRDQMRLYMTELTCRSCQGYRLNPQALAVKINGTHIGEVSELAIKNAVQFFEGVSLSEQETTIARPILKEVEDRLTFLKNVGLDYLTLSRAAGTLSGGEAQRIRLATQIGSNLSGVLYILDEPSIGLHQRDNDRLIDSLKKMRDLGNTLIVVEHDEDTMMASDYLIDVGPGAGHLGGEIVAAGTPEEVAKNPHSLTGQYLSGKKVIPVPKERRKGNGKAIKVTGASENNLKNVSVEFPLGEFVAVTGVSGSGKSTLVNQILKKALAQKLNRNSNKPGKHKSITGYEAIEKIVDIDQSPIGRTPRSNPATYTSVFDDIRDLFAQTNEAKVRGYKKGRFSFNVKGGRCEACRGDGIIKIEMHFLPDVYVPCEVCHGKRYNSETLEVHYKGKNISDILDMTVEDAVEFFKHIPKIHRKLQTIVDVGLGYVTLGQPATTLSGGEAQRMKLASELHKNSNGKNFYILDEPTTGLHTDDIARLLLVLERLVEAGNTVLVIEHNLDVIKSADHVIDLGPEGGDGGGTIVATGTPEEVAKVKDSYTGYYLKRVLK", "soluble on expression in E. coli": "not soluble"},
      {"sequence": "MGSDKIHHHHHHMKILIIPNRGRSYNAVRPEAECYIALAEAGHDVTVISSGTNAYIDRYKKSKVKFIELKTLKKHSWAVIKQIRQYIKANNIDIVYATESKGIPNAAFACIGTKAKLVVYRGTSGGMYKTDPSNYLCMLHPRINGVIGVSSAVSANVREKVRGAIKANVETIYKGHDLSWYKEDAADLVSLGSNKKYFNILCVGSPRHHKGTHILLDAAKELNDIEDLRIILVGDNLDKQAFIDQINNSGMSEHILQPGFRSDVPAIAKACDLLILPSLSKEGLTRTVLESLSNGTPVVSSANDGVVETIENGFNGYLVPIGDVQAMADKIRMLYNDRVLLEKLSNHAQDIIKDKMSHHKTVTHMEAYFEKIIAQN", "soluble on expression in E. coli": "not soluble"},
      {"sequence": "MYDNTTDTKMQAERQKKSCTTVGGVLAYSVPTGLHRCDSAVTRVEEVHMAEMVEIPAALYGRGAVRVVPVDSTVRLDVKIPAALMRKLMIESNRSGVPLTKIVDRLLSAAIAQDSEQEEIRPR", "soluble on expression in E. coli": "not soluble"},
      {"sequence": "MLVAERHEKIIALVTEKGSVRVSELSQLFNVTEETIRRDLEKLESERKLQRSHGGAVSIKEDTEAPYFEREIRNVNEKQAVAAQAVTYVTTNDRIILDASTTAWYMAKRLPDVPLTVLTNSMKVAMELAKREKITVITVGGTLLRKSLSFVGPQTNQTLELYHVNKAFISCQGVHAKRGISDSNEMQALVKQKMIDISDHVFLLADHTKFGKQAFSRITSMETIDTIITDSKTSEEQISDFQELEMDVIRALEHHHHHH", "soluble on expression in E. coli": "soluble"},
      {"sequence": "CSKNRKAKAKPVTRGTGAGSRPRGQNKERPPPVPNPDYEPIRKGQRDLYSGLNQRAV", "soluble on expression in E. coli": "soluble"},
      {"sequence": "MGSDKIHHHHHHVSSTIWTPTAVASEAAAIRFSLWRAVEGQHAVSTMVLVDSLEEQALLEQLLEGSKPPVPASANGLHWLLFTPFRYPPPPTGSRFRGPLDPGVFYGADEIETACAELGFWRWQFLMESPSLTALDPKPQTVFKVEVDTLTVDLRSPPFTESRALWIDPKSYAATQDLARSAREANIGAIRYESVRAPNRGGCGAILTPMAFAEPQPRDAQTWWLSVSRERVLWQRDDVLQRATFAFDTKAFCE", "soluble on expression in E. coli": "not soluble"},
      {"sequence": "MSKSTAEIRQAFLDFFHSKGHQVVASSSLVPHNDPTLLFTNAGMNQFKDVFLGLDKRNYSRATTSQRCVRAGGKHNDLENVGYTARHHTFFEMLGNFSFGDYFKHDAIQFAWELLTSEKWFALPKERLWVTVYESDDEAYEIWEKEVGIPRERIIRIGDNKGAPYASDNFWQMGDTGPCGPCTEIFYDHGDHIWGGPPGSPEEDGDRYIEIWNIVFMQFNRQADGTMEPLPKPSVDTGMGLERIAAVLQHVNSNYDIDLFRTLIQAVAKVTGATDLSNKSLRVIADHIRSCAFLIADGVMPSNENRGYVLRRIIRRAVRHGNMLGAKETFFYKLVGPLIDVMGSAGEDLKRQQAQVEQVLKTEEEQFARTLERGLALLDEELAKLSGDTLDGETAFRLYDTYGFPVDLTADVCRERNIKVDEAGFEAAMEEQRRRAREASGFGADYNAMIRVDSASEFKGYDHLELNGKVTALFVDGKAVDAINAGQEAVVVLDQTPFYAESGGQVGDKGELKGANFSFAVEDTQKYGQAIGHIGKLAAGSLKVGDAVQADVDEARRARIRLNHSATHLMHAALRQVLGTHVSQKGSLVNDKVLRFDFSHNEAMKPEEIRAVEDLVNTQIRRNLPIETNIMDLEAAKAKGAMALFGEKYDERVRVLSMGDFSTELCGGTHASRTGDIGLFRIISESGTAAGVRRIEAVTGEGAIATVHADSDRLSEVAHLLKGDSNNLADKVRSVLERTRQLEKELQQLKEQAAAQESANLSSKAIDVNGVKLLVSELSGVEPKMLRTMVDDLKNQLGSTIIVLATVVEGKVSLIAGVSKDVTDRVKAGELIGMVAQQVGGKGGGRPDMAQAGGTDAAALPAALASVKGWVSAKLQ", "soluble on expression in E. coli": "soluble"},
      {"sequence": "MSLSWEYEYYPHSLFCHHKEREGMHYIEGAYWSAEPDLPYLHKRKILMLVEDVWLLVDDIRCQGQHEALTQFILDKDVTYQDGKINQLRLWSEVDFDLEDTIISPKYNELERSSKLTKRQFFENQMLDYTIIAHESFEIIRHSVYQTDDREVENALAFEVKNDETDKLILLLSEDIRVGEKLCLVDGTKMRGKCLVYDKINERMIRLQCEGHHHHHH", "soluble on expression in E. coli": "soluble"},
      {"sequence": "PVHAVGIGPGNLDFLTPRGEEAIREADVVVGFETVVEFVADRTDADLLTCGYRDELDTLDAFAERVAGGERGTAVAMGDPNHSGYQFVGKVQRAVDRPVRIVPGI", "soluble on expression in E. coli": "not soluble"},
      {"sequence": "MSLTKIVLITGANKGIGFETAKQIGKNGWTLLISTRNEERGKNAVHQLQQDGITAEWLQIDLNDIASIHKAARYVEERYPKLDGLINNAGISGDMQKNPLELKSSELEQLAKVNFLGNFEMIKSFTPILSRNHGRILNVTIPATPIGSFNPLGYLASKASLNSMIKSFAMYYKKHEIPVEIFGVLPGGISTDLNQHQSGLLIRTVQEGGESIAKVMMDRHNHQGKLLMRMGLTQLARNFVFRRHDEGHHHHHH", "soluble on expression in E. coli": "not soluble"},
      {"sequence": "MGSDKIHHHHHHMVKNNNIAVKVEHVSKSFKLPTESSQSLRTTLVNLFKGIKGYVEYNVLQDISFEVEKGDFFGIVGRNGSGKSTLLKILSQIYVPERGTVAVDGKLVSFIELGVGFNPELTGKENVYLNGAMLGFTAEEIDAMYDDIVEFAELSEFMNQKLKNYSSGMQVRLAFSVAIKAQGDILILDEVLAVGDEAFQRKCNDYFLERKKSGKTTILVTHDMGAVKKYCNKALLIEKGYVKALGEPDDVANQYSFDNVLASISEVTENEEPLHQSDIVKDLQINLVSKNQIEPDESIEIEFRYTVLEDIETHVAFTFLDLERHFDVYNDNSMDLKTFGKGEKFFRVKCKLPSINQAKLKMAVSVRNSNKQPLLFAKTSDTPAIFISRKFSTDNIAEEDAATGFIQRNSQWELLD", "soluble on expression in E. coli": "not soluble"},
      {"sequence": "MGSDKIHHHHHHMVIHKETMRSANEKSVLQRIFTEGPISKSQVARDVSLNKVTVSQIINKFISSRLVVEAGSGDSTQQGGRKPELVQINSKYGYVVCIDLGYQELSVLSMSINGQKLDSRHTIFGNDDINIAIEKIYEILVEFQEMHKERLLGLLVSIHGIVHKNQVIYSPFWNMKQIDLADTLSKKFDIPVILENEANLTATFERDYSVNEIQNAVSISMHKGIGAGIIIDGELYRGRKGEAGEIGQTVAFESENQSLEKSNKIEDVCSPQVILARIKNAKKLEYINWQLVRQMFDDKDQETLEILKEFENNVAKIINNVIVSFDPDVLVVNAYIFKEFPEILERISNGFAHVSVRNTPIVLSENVKNASLYGGCAQMIRTILGVSKLKLQYKK", "soluble on expression in E. coli": "not soluble"},
      {"sequence": "MGSDKIHHHHHHDEIDTLVSKSDNAITFGTYVGKQTKALDKSAFAKDDKFGVSAYYGDGTFEANFMSNETISTTDGSTWTYTNTKYWPEGNPVSFVAYYPNLTTAPTITDGATAIPFTVKNDATEQVDFMWSTVKAATKDDKNGTAINGITNTTTDATSVPFVFQHGLSKISFKAKLGEASYSGVTIKVKSIKINGVKNKGTFTIPADLTAGTWATEDAATNDYTVSETNGKEIASTTADSIGESLLMIPQDMKGKTIEIAYDLVYTNPAQTISNTKAIVLDDKSNWVMNQQYTYTLTISLETVQLTASVGQFGANIDL", "soluble on expression in E. coli": "not soluble"},
      {"sequence": "MAHHHHHHMSDAFEARMSAMRARLSSLCHTVEEQEVEQQQQRRSFEHRYFVEARAAGSAATPAATKPITSTATPPSSAPISRPVTSKSQVPRTDGISERDVNQVHSASRKDAAFGHHFGTSSPSASITRARAAKPGSGVNAMLQLARYHASGSWSEAVVTKDIVRFTGGRSSPVPKAPATIPPEAFAVNTGQDTTDSSPVPLMPCGVAGLHSYGFRERLPSPRRPTASLAANTVDLASRNGEGRTSQNTPREESCITAADTTIVDTMHADEATSFDAFRVVQERLRQKMMQLTTTSPHSVVPLSTRGAPAEFAVSDDATAPREELPHRGLTASRAVSDVDGSSPSPRPPPGTRAETATPTRSPDKDESSSHETAPLPQTTPRYQHGQGDTWTDVEVLPATTEPDTENATEARLFTHGSLHDSVVGSGDETTAVSREWQWSRCGVPSTKARTANVPRGVFDPTVRHVRVSRMPSSDAQLNPAAGEQRADSREYRRSPEAATAGRAHSDRGRSGRTTASIQHGVSSAPRRSGSRHAPSSTSAARWSATREGSVSTAARSRKSAPKPAARPKPISLNVEATILCPVTGAELFALLRMRGLIDSEGDTAEYRLPPVRCHRLYVTAEEHRQLKLLRQSLHSLVAEEQHQDIPSYQRFTVSARSRNAEFAPPPPVLRYMDV", "soluble on expression in E. coli": "not soluble"},
      {"sequence": "SNKDLVHIGVLQYVEHPSLSATRKGFIEELKEEGYVDGKNIKIDYQNAQGDQSNLQTISQSLIEDNDVMLAIATPAAQSLSSLTKGKPILFTAVTDPVSAKLVKSMDNVGGNVTGTSDMSPINKQVELLKKVFPNTKKVGIMYTTSERNSEVQVEEAKKYFKEAGIETVIKGISSTNDIQDTAKSLMSQTEVIFIPTDNTIVSAINTLVDLSKETKVPVVGSDAGSVEKGVLFTYGTNYEALGRQTGKLAGRVLRGEKVKDIDAEYPKTLNVVVNHDMAKKLGIDVSSISDEESKVSTKDDKPIAK", "soluble on expression in E. coli": "not soluble"}
    ]}
  ]
}
